We go through three molecules from patent US20120121597A1 (ROCKEFELLER UNIVERSITY, published 2012).

For assay [1], the target named is CD4 receptor on the target cells of the virus neutralization assay (human, UniProt P01730 26-458). The experiment in a line: cell-based or functional assay.
The target in assay [2] is T1, human soluble CD4 (sCD4) (human, UniProt P01730 26-396).
T1 construct: also called human CD4
The assay is described as follows: competition ELISA on plate-coated sCD4; competitor: fixed concentration of HRP-labeled iMab.

In assay [3] the target is T1, human soluble CD4 (sCD4). The experiment in a line: SPR, Biacore-3000. In general terms: In SPR one partner is held on a chip, and binding of the other changes the refractive index at the surface.

B1: iMabm36 fusion antibody (bispecific antibody, human IgG1, kappa)
heavy: QVQLQQSGPEVVKPGASVKMSCKASGYTFTSYVIHWVRQKPGQGLDWIGYINPYNDGTDYDEKFKGKATLTSDTSTSTAYMELSSLRSEDTAVYYCAREKDNYATGAWFAYWGQGTLVTVSSASTKGPSVFPLAPSSKSTSGGTAALGCLVKDYFPEPVTVSWNSGALTSGVHTFPAVLQSSGLYSLSSVVTVPSSSLGTQTYICNVNHKPSNTKVDKKVEPKSCDKTHTCPPCPAPEFEGGPSVFLFPPKPKDTLMISRTPEVTCVVVDVSHEDPEVKFNWYVDGVEVHNAKTKPREEQYNSTYRVVSVLTVLHQDWLNGKEYKCKVSNKALPASIEKTISKAKGQPREPQVYTLPPSRDELTKNQVSLTCLVKGFYPSDIAVEWESNGQPENNYKTTPPVLDSDGSFFLYSKLTVDKSRWQQGNVFSCSVLHEALHSHYTQKSLSLSPGKLEGGGGSGGGGSGGGGSGQVQLVQSGGGLVQPGGSLRLSCAASAFDFSDYEMSWVRQAPGKGLEWIGEINDSGNTIYNPSLKSRVTISRDNSKNTLYLQMNTLRAEDTAIYYCAIYGGNSGGEYWGQGTLVTVSS
light: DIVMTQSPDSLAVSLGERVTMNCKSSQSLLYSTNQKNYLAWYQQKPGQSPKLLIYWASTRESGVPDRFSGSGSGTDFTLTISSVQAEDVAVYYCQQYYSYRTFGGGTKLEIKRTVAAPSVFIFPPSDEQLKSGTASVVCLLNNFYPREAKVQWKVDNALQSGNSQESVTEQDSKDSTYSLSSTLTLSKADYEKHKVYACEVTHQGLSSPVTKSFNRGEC
Turning to B1, the “IC50 (read off the curve), virus G23 [Virus (G23]” value in assay [1] was approximately 0.2 nM.

B2: m36 (other)
VH: QVQLVQSGGGLVQPGGSLRLSCAASAFDFSDYEMSWVRQAPGKGLEWIGEINDSGNTIYNPSLKSRVTISRDNSKNTLYLQMNTLRAEDTAIYYCAIYGGNSGGEYWGQGTLVTVSS
notes: also called m36 polypeptide
Turning to B2, the binding result in assay [2] is recorded as “no binding”.

B3: iMab mutant E95A (CDR-H3 ARAKDNYATGAWFA) (antibody, V domains shown)
VH: QVQLQQSGPEVVKPGASVKMSCKASGYTFTSYVIHWVRQKPGQGLDWIGYINPYNDGTDYDEKFKGKATLTSDTSTSTAYMELSSLRSEDTAVYYCARAKDNYATGAWFAYWGQGTLVTVSS
VL: DIVMTQSPDSLAVSLGERVTMNCKSSQSLLYSTNQKNYLAWYQQKPGQSPKLLIYWASTRESGVPDRFSGSGSGTDFTLTISSVQAEDVAVYYCQQYYSYRTFGGGTKLEIK
As to B3, in assay [3], the dissociation constant Kd was 7.7 nM, the koff worked out at 0.0048 s⁻¹ and the kon is 620000 M⁻¹ s⁻¹.

As usually defined, the Kd is the constant that tells how readily two partners part at equilibrium. Higher therefore signals weaker binding. For orientation: koff means a measure of how fast the partners let go of each other. A low value points to slow dissociation. In general, kon refers to the second-order rate constant of association. A higher kon goes with faster complex formation.
